Reference: publication PMC11420629 (2024)

Biological target: T1, GluR1 carboxy‐terminal region (SPR)
T1 chain: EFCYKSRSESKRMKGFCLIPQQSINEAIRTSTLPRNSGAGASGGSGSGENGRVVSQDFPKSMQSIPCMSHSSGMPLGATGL
Assay: SPR

- Kd: 1010 nM
B1: full‐length CIRP protein (SPR) (natural protein)
chain: MASDEGKLFVGGLSFDTNEQALEQVFSKYGQISEVVVVKDRETQRSRGFGFVTFENIDDAKDAMMAMNGKSVDGRQIRVDQAGKSSDNRSRGYRGGSAGGRGFFRGGRSRGRGFSRGGGDRGYGGGRFESRSGGYGGSRDYYASRSQGGSYGYRSSGGSYRDSYDSYATHNE
